Assay results published in publication PMC9482650, “Quantitative fragmentomics allow affinity mapping of interactomes” (Nature Communications, 2022).

T1: DFNB31_3, Q9P202
T1 sequence (Q9P202 811-907, limits assumed, looked up): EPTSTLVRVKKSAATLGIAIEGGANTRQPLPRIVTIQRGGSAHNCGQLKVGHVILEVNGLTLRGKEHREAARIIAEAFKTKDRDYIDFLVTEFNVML

T2: APBA3_1, O96018
T2 sequence (O96018 389-490, limits assumed, looked up): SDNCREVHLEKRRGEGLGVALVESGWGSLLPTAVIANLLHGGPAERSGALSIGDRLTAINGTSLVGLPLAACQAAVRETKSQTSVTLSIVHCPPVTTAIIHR

T3: SNTG1, Q9NSN8
T3 sequence (Q9NSN8 52-150, limits assumed, looked up): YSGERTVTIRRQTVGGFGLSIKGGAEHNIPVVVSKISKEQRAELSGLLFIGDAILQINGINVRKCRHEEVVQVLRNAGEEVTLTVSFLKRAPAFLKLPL

T4: SNTA1, Q13424
T4 sequence (Q13424 82-180, limits assumed, looked up): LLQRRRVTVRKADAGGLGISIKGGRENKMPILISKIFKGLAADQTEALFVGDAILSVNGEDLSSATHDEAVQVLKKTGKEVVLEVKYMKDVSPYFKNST

T5: HTRA3, P83110
T5 sequence (P83110 354-453, limits assumed, looked up): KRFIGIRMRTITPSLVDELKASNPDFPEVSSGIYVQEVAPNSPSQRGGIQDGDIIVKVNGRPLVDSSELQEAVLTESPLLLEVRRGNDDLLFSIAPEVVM

T6: APBA2_1, Q99767
T6 sequence (Q99767 563-664, limits assumed, looked up): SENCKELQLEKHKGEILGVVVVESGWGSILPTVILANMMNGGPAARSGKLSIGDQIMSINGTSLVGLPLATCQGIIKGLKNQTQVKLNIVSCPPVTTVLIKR

T7: DFNB31_2, Q9P202
T7 sequence (Q9P202 274-371, limits assumed, looked up): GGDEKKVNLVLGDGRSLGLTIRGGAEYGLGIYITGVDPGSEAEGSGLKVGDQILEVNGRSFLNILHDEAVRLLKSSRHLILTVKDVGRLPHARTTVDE

T8: DLG3_2, Q92796
T8 sequence (Q92796 221-321, limits assumed, looked up): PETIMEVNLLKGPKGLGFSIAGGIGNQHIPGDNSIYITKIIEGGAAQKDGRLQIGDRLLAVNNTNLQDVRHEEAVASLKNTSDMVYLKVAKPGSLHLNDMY

T9: PARD3B_1, Q8TEW8
T9 sequence (Q8TEW8 196-299, limits assumed, looked up): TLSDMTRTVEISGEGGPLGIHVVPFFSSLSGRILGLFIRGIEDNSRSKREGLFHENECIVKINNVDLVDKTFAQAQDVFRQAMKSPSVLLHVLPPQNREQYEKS

T10: DLG3_3, Q92796
T10 sequence (Q92796 374-475, limits assumed, looked up): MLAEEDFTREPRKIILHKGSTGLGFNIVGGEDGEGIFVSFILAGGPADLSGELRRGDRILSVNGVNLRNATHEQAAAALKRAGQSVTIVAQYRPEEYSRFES

T11: MPP6, Q9NZW5
T11 sequence (Q9NZW5 125-219, limits assumed, looked up): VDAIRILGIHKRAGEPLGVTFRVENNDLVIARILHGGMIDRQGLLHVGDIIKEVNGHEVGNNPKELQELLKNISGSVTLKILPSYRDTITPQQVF


target: T1, DFNB31_3, Q9P202; test: holdup assay; set-up: key: below the threshold = too weak to quantify, mostly under pKd 3.1 to 4; conditions: plain residues with an end cap or a label only (N-terminal biotin on a linker: ado-ado)

pKd | Binder
below the threshold | PSVGSKKTVL [REELD1, A0A1B0GV85]
3.74 | DRIQSCLSDA [SBF1, O95248]

target: T2, APBA3_1, O96018; test: holdup assay; set-up: key: below the threshold = too weak to quantify, mostly under pKd 3.1 to 4; conditions: plain residues with an end cap or a label only (N-terminal biotin on a linker: ado-ado)

pKd | Binder
below the threshold | PSVGSKKTVL [REELD1, A0A1B0GV85]
below the threshold | DRIQSCLSDA [SBF1, O95248]

target: T3, SNTG1, Q9NSN8; test: holdup assay; set-up: key: below the threshold = too weak to quantify, mostly under pKd 3.1 to 4; conditions: plain residues with an end cap or a label only (N-terminal biotin on a linker: ado-ado)

pKd | Binder
below the threshold | PSVGSKKTVL [REELD1, A0A1B0GV85]
below the threshold | DRIQSCLSDA [SBF1, O95248]

target: LNX1_2, Q8TBB1; test: holdup assay; set-up: key: below the threshold = too weak to quantify, mostly under pKd 3.1 to 4; conditions: plain residues with an end cap or a label only (N-terminal biotin on a linker: ado-ado)
Sequence (Q8TBB1 371-470): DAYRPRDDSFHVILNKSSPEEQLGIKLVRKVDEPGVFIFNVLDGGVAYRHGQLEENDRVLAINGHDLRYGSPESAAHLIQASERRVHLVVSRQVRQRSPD

pKd | Binder
below the threshold | PSVGSKKTVL [REELD1, A0A1B0GV85]
below the threshold | DRIQSCLSDA [SBF1, O95248]

target: GRASP, Q7Z6J2; test: holdup assay; set-up: key: below the threshold = too weak to quantify, mostly under pKd 3.1 to 4; conditions: plain residues with an end cap or a label only (N-terminal biotin on a linker: ado-ado)
Sequence (Q7Z6J2 96-193): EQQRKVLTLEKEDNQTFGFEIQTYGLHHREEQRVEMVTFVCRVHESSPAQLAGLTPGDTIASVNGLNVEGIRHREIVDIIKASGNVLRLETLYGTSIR

pKd | Binder
4.43 | PSVGSKKTVL [REELD1, A0A1B0GV85]
below the threshold | DRIQSCLSDA [SBF1, O95248]

target: Inadl_6, Q8NI35; test: holdup assay; set-up: key: below the threshold = too weak to quantify, mostly under pKd 3.1 to 4; conditions: plain residues with an end cap or a label only (N-terminal biotin on a linker: ado-ado)
Sequence (Q8NI35 1058-1167): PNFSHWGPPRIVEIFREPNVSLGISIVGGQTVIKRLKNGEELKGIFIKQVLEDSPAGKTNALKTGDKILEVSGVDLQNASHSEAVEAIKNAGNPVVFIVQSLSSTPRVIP

pKd | Binder
below the threshold | PSVGSKKTVL [REELD1, A0A1B0GV85]
below the threshold | DRIQSCLSDA [SBF1, O95248]

target: NHERF2_2, Q15599; test: holdup assay; set-up: key: below the threshold = too weak to quantify, mostly under pKd 3.1 to 4; conditions: plain residues with an end cap or a label only (N-terminal biotin on a linker: ado-ado)
Sequence (Q15599 142-238): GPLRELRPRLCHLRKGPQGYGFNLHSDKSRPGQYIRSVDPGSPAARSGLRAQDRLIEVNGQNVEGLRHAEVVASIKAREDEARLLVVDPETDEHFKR

pKd | Binder
3.68 | PSVGSKKTVL [REELD1, A0A1B0GV85]
below the threshold | DRIQSCLSDA [SBF1, O95248]

target: Inadl_2, Q8NI35; test: holdup assay; set-up: key: below the threshold = too weak to quantify, mostly under pKd 3.1 to 4; conditions: plain residues with an end cap or a label only (N-terminal biotin on a linker: ado-ado)
Sequence (Q8NI35 238-335): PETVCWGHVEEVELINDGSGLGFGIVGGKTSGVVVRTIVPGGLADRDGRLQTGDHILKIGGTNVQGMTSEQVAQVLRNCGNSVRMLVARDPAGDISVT

pKd | Binder
below the threshold | PSVGSKKTVL [REELD1, A0A1B0GV85]
below the threshold | DRIQSCLSDA [SBF1, O95248]

target: DLG4_3, P78352; test: holdup assay; set-up: key: below the threshold = too weak to quantify, mostly under pKd 3.1 to 4; conditions: plain residues with an end cap or a label only (N-terminal biotin on a linker: ado-ado)
Sequence (P78352 306-403): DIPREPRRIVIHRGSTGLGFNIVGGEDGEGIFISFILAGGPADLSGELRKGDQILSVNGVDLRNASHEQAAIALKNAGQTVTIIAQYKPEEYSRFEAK

pKd | Binder
below the threshold | PSVGSKKTVL [REELD1, A0A1B0GV85]
below the threshold | DRIQSCLSDA [SBF1, O95248]

target: HTRA1, Q92743; test: holdup assay; set-up: key: below the threshold = too weak to quantify, mostly under pKd 3.1 to 4; conditions: plain residues with an end cap or a label only (N-terminal biotin on a linker: ado-ado)
Sequence (Q92743 360-477): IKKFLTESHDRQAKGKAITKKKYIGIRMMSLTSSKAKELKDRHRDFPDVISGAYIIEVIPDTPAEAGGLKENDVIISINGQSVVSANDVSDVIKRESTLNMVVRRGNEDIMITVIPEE

pKd | Binder
3.55 | PSVGSKKTVL [REELD1, A0A1B0GV85]
below the threshold | DRIQSCLSDA [SBF1, O95248]

target: T4, SNTA1, Q13424; test: holdup assay; set-up: key: below the threshold = too weak to quantify, mostly under pKd 3.1 to 4; conditions: plain residues with an end cap or a label only (N-terminal biotin on a linker: ado-ado)

pKd | Binder
3.73 | PSVGSKKTVL [REELD1, A0A1B0GV85]
below the threshold | DRIQSCLSDA [SBF1, O95248]

target: T5, HTRA3, P83110; test: holdup assay; set-up: key: below the threshold = too weak to quantify, mostly under pKd 3.1 to 4; conditions: plain residues with an end cap or a label only (N-terminal biotin on a linker: ado-ado)

pKd | Binder
below the threshold | PSVGSKKTVL [REELD1, A0A1B0GV85]
3.57 | DRIQSCLSDA [SBF1, O95248]

target: T6, APBA2_1, Q99767; test: holdup assay; set-up: key: below the threshold = too weak to quantify, mostly under pKd 3.1 to 4; conditions: plain residues with an end cap or a label only (N-terminal biotin on a linker: ado-ado)

pKd | Binder
below the threshold | PSVGSKKTVL [REELD1, A0A1B0GV85]
below the threshold | DRIQSCLSDA [SBF1, O95248]

target: MAGI2_4, Q86UL8; test: holdup assay; set-up: key: below the threshold = too weak to quantify, mostly under pKd 3.1 to 4; conditions: plain residues with an end cap or a label only (N-terminal biotin on a linker: ado-ado)
Sequence (Q86UL8 772-865): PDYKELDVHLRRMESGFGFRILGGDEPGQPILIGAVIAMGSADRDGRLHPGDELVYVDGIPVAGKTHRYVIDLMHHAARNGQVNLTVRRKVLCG

pKd | Binder
below the threshold | PSVGSKKTVL [REELD1, A0A1B0GV85]
3.7 | DRIQSCLSDA [SBF1, O95248]

target: T7, DFNB31_2, Q9P202; test: holdup assay; set-up: key: below the threshold = too weak to quantify, mostly under pKd 3.1 to 4; conditions: plain residues with an end cap or a label only (N-terminal biotin on a linker: ado-ado)

pKd | Binder
below the threshold | PSVGSKKTVL [REELD1, A0A1B0GV85]
below the threshold | DRIQSCLSDA [SBF1, O95248]

target: IL16_1, Q14005; test: holdup assay; set-up: key: below the threshold = too weak to quantify, mostly under pKd 3.1 to 4; conditions: plain residues with an end cap or a label only (N-terminal biotin on a linker: ado-ado)
Sequence (Q14005 210-306): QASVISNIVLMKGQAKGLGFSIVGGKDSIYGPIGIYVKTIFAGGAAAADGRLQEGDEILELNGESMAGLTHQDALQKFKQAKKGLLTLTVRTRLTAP

pKd | Binder
below the threshold | PSVGSKKTVL [REELD1, A0A1B0GV85]
below the threshold | DRIQSCLSDA [SBF1, O95248]

target: IL16_4, Q14005; test: holdup assay; set-up: key: below the threshold = too weak to quantify, mostly under pKd 3.1 to 4; conditions: plain residues with an end cap or a label only (N-terminal biotin on a linker: ado-ado)
Sequence (Q14005 1229-1329): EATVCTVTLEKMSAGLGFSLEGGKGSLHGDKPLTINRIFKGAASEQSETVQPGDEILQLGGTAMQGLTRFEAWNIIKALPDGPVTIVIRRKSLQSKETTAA

pKd | Binder
3.6 | PSVGSKKTVL [REELD1, A0A1B0GV85]
below the threshold | DRIQSCLSDA [SBF1, O95248]

target: MAST1, Q9Y2H9; test: holdup assay; set-up: key: below the threshold = too weak to quantify, mostly under pKd 3.1 to 4; conditions: plain residues with an end cap or a label only (N-terminal biotin on a linker: ado-ado)
Sequence (Q9Y2H9 962-1065): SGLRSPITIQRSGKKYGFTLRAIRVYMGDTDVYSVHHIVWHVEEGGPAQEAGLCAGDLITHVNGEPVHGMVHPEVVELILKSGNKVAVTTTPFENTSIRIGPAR

pKd | Binder
4.2 | PSVGSKKTVL [REELD1, A0A1B0GV85]
3.62 | DRIQSCLSDA [SBF1, O95248]

target: T8, DLG3_2, Q92796; test: holdup assay; set-up: key: below the threshold = too weak to quantify, mostly under pKd 3.1 to 4; conditions: plain residues with an end cap or a label only (N-terminal biotin on a linker: ado-ado)

pKd | Binder
below the threshold | PSVGSKKTVL [REELD1, A0A1B0GV85]
4.19 | DRIQSCLSDA [SBF1, O95248]

target: T9, PARD3B_1, Q8TEW8; test: holdup assay; set-up: key: below the threshold = too weak to quantify, mostly under pKd 3.1 to 4; conditions: plain residues with an end cap or a label only (N-terminal biotin on a linker: ado-ado)

pKd | Binder
4.62 | PSVGSKKTVL [REELD1, A0A1B0GV85]
below the threshold | DRIQSCLSDA [SBF1, O95248]

target: SCRIB_1, Q14160; test: holdup assay; set-up: key: below the threshold = too weak to quantify, mostly under pKd 3.1 to 4; conditions: plain residues with an end cap or a label only (N-terminal biotin on a linker: ado-ado)
Sequence (Q14160 718-814): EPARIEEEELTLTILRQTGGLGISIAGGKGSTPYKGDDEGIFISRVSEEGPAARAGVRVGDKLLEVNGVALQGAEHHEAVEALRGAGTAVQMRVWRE

pKd | Binder
below the threshold | PSVGSKKTVL [REELD1, A0A1B0GV85]
below the threshold | DRIQSCLSDA [SBF1, O95248]

target: LAP2, Q96RT1; test: holdup assay; set-up: key: below the threshold = too weak to quantify, mostly under pKd 3.1 to 4; conditions: plain residues with an end cap or a label only (N-terminal biotin on a linker: ado-ado)
Sequence (Q96RT1 other isoform, or with tags, fused parts or gaps): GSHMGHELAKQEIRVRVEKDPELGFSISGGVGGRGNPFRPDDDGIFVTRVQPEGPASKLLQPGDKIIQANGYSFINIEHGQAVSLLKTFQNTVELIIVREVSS

pKd | Binder
below the threshold | PSVGSKKTVL [REELD1, A0A1B0GV85]
below the threshold | DRIQSCLSDA [SBF1, O95248]

target: GRIP2_5, Q9C0E4; test: holdup assay; set-up: key: below the threshold = too weak to quantify, mostly under pKd 3.1 to 4; conditions: plain residues with an end cap or a label only (N-terminal biotin on a linker: ado-ado)
Sequence (Q9C0E4 544-642): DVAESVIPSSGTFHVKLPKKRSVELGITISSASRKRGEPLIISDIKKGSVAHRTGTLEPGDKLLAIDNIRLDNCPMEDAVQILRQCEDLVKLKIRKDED

pKd | Binder
below the threshold | PSVGSKKTVL [REELD1, A0A1B0GV85]
below the threshold | DRIQSCLSDA [SBF1, O95248]

target: T10, DLG3_3, Q92796; test: holdup assay; set-up: key: below the threshold = too weak to quantify, mostly under pKd 3.1 to 4; conditions: plain residues with an end cap or a label only (N-terminal biotin on a linker: ado-ado)

pKd | Binder
below the threshold | PSVGSKKTVL [REELD1, A0A1B0GV85]
below the threshold | DRIQSCLSDA [SBF1, O95248]

target: Inadl_9, Q8NI35; test: holdup assay; set-up: key: below the threshold = too weak to quantify, mostly under pKd 3.1 to 4; conditions: plain residues with an end cap or a label only (N-terminal biotin on a linker: ado-ado)
Sequence (Q8NI35 1530-1615): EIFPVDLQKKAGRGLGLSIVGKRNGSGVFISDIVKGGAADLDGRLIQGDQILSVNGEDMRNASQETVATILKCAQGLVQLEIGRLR

pKd | Binder
below the threshold | PSVGSKKTVL [REELD1, A0A1B0GV85]
below the threshold | DRIQSCLSDA [SBF1, O95248]

target: T11, MPP6, Q9NZW5; test: holdup assay; set-up: key: below the threshold = too weak to quantify, mostly under pKd 3.1 to 4; conditions: plain residues with an end cap or a label only (N-terminal biotin on a linker: ado-ado)

pKd | Binder
below the threshold | PSVGSKKTVL [REELD1, A0A1B0GV85]
below the threshold | DRIQSCLSDA [SBF1, O95248]
